Source: publication PMC9482650, “Quantitative fragmentomics allow affinity mapping of interactomes” (Nature Communications, 2022)

B1: HPV59-E6, Q81964 (peptide)
chain: QRQARSETLV
B2: HPV30-E6, P36809 (peptide)
chain: RHTTSTETAV

Molecular target: CARD14, Q9BXL6
Experiment: holdup assay
Set-up: key: below the threshold = too weak to quantify, mostly under pKd 3.1 to 4
Settings: plain residues with an end cap or a label only (N-terminal biotin on a linker: ttds)

Sequence of CARD14, Q9BXL6 (Q9BXL6 558-663): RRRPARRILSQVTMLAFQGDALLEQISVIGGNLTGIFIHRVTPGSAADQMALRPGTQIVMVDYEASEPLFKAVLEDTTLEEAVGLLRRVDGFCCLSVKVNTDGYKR

Binder	pKd
B1	below the threshold
B2	below the threshold

Molecular target: DLG2_1, Q15700
Experiment: holdup assay
Set-up: key: below the threshold = too weak to quantify, mostly under pKd 3.1 to 4
Settings: plain residues with an end cap or a label only (N-terminal biotin on a linker: ttds)

Binder	pKd
B1	4.52
B2	4.84

Molecular target: DLG5_2, Q8TDM6
Experiment: holdup assay
Set-up: key: below the threshold = too weak to quantify, mostly under pKd 3.1 to 4
Settings: plain residues with an end cap or a label only (N-terminal biotin on a linker: ttds)

Sequence of DLG5_2, Q8TDM6 (Q8TDM6 714-800): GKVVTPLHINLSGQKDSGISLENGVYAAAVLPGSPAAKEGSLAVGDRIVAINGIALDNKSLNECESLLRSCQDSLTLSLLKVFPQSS

Binder	pKd
B1	below the threshold
B2	below the threshold

Molecular target: T1, GIPC1, O14908
T1 sequence (O14908 128-223, limits assumed, looked up): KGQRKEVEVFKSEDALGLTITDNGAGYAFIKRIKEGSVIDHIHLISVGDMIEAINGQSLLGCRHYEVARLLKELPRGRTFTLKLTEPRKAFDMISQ
Experiment: holdup assay
Set-up: key: below the threshold = too weak to quantify, mostly under pKd 3.1 to 4
Settings: plain residues with an end cap or a label only (N-terminal biotin on a linker: ttds)

Binder	pKd
B1	below the threshold
B2	4.7

Molecular target: GRIP2_2, Q9C0E4
Experiment: holdup assay
Set-up: key: below the threshold = too weak to quantify, mostly under pKd 3.1 to 4
Settings: plain residues with an end cap or a label only (N-terminal biotin on a linker: ttds)

Sequence of GRIP2_2, Q9C0E4 (Q9C0E4 137-245): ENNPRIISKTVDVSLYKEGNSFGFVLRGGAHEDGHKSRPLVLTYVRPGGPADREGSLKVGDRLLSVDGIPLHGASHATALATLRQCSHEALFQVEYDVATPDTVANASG

Binder	pKd
B1	below the threshold
B2	below the threshold

Molecular target: LIMK1, P53667
Experiment: holdup assay
Set-up: key: below the threshold = too weak to quantify, mostly under pKd 3.1 to 4
Settings: plain residues with an end cap or a label only (N-terminal biotin on a linker: ttds)

Sequence of LIMK1, P53667 (P53667 155-268): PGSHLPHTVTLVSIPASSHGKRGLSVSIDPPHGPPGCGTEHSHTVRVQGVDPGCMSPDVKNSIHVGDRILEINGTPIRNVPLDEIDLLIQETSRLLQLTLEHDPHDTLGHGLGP

Binder	pKd
B1	below the threshold
B2	below the threshold

Molecular target: LMO7, Q8WWI1
Experiment: holdup assay
Set-up: key: below the threshold = too weak to quantify, mostly under pKd 3.1 to 4
Settings: plain residues with an end cap or a label only (N-terminal biotin on a linker: ttds)

Sequence of LMO7, Q8WWI1 (Q8WWI1 1037-1138): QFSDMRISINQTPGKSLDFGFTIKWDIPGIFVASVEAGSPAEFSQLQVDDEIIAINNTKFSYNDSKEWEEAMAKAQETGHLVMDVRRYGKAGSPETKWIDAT

Binder	pKd
B1	below the threshold
B2	below the threshold

Molecular target: MAGI1_5, Q96QZ7
Experiment: holdup assay
Set-up: key: below the threshold = too weak to quantify, mostly under pKd 3.1 to 4
Settings: plain residues with an end cap or a label only (N-terminal biotin on a linker: ttds)

Sequence of MAGI1_5, Q96QZ7 (Q96QZ7 986-1098): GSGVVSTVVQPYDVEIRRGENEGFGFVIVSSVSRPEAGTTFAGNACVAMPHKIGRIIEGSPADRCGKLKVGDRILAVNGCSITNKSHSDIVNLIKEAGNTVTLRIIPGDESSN

Binder	pKd
B1	5.41
B2	5.02

Molecular target: MAGI1_6, Q96QZ7
Experiment: holdup assay
Set-up: key: below the threshold = too weak to quantify, mostly under pKd 3.1 to 4
Settings: plain residues with an end cap or a label only (N-terminal biotin on a linker: ttds)

Sequence of MAGI1_6, Q96QZ7 (Q96QZ7 1146-1238): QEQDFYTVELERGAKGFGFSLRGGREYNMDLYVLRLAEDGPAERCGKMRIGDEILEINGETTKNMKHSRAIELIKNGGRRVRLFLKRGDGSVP

Binder	pKd
B1	below the threshold
B2	4.73

Molecular target: MAGI3_6, Q5TCQ9
Experiment: holdup assay
Set-up: key: below the threshold = too weak to quantify, mostly under pKd 3.1 to 4
Settings: plain residues with an end cap or a label only (N-terminal biotin on a linker: ttds)

Sequence of MAGI3_6, Q5TCQ9 (Q5TCQ9 1014-1103): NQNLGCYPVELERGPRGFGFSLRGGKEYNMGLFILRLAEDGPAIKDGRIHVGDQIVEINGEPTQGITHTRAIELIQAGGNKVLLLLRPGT

Binder	pKd
B1	below the threshold
B2	below the threshold

Molecular target: T2, MLLT4, P55196
T2 sequence (P55196 1002-1103, limits assumed, looked up): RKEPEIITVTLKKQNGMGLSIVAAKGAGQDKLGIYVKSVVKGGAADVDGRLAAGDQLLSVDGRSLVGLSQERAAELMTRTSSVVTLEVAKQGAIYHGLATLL
Experiment: holdup assay
Set-up: key: below the threshold = too weak to quantify, mostly under pKd 3.1 to 4
Settings: plain residues with an end cap or a label only (N-terminal biotin on a linker: ttds)

Binder	pKd
B1	4.33
B2	below the threshold

Molecular target: T3, MPDZ_6, O75970
T3 sequence (O75970 1003-1099, limits assumed, looked up): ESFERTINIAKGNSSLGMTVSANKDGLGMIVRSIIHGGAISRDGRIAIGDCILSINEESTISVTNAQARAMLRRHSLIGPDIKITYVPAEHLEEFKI
Experiment: holdup assay
Set-up: key: below the threshold = too weak to quantify, mostly under pKd 3.1 to 4
Settings: plain residues with an end cap or a label only (N-terminal biotin on a linker: ttds)

Binder	pKd
B1	below the threshold
B2	below the threshold

Molecular target: T4, MPDZ_7, O75970
T4 sequence (O75970 1146-1253, limits assumed, looked up): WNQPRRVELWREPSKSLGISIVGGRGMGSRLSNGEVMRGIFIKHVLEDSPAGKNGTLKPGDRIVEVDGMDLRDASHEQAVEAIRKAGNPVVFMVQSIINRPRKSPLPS
Experiment: holdup assay
Set-up: key: below the threshold = too weak to quantify, mostly under pKd 3.1 to 4
Settings: plain residues with an end cap or a label only (N-terminal biotin on a linker: ttds)

Binder	pKd
B1	4.28
B2	below the threshold

Molecular target: T5, MPP5, Q8N3R9
T5 sequence (Q8N3R9 251-346, limits assumed, looked up): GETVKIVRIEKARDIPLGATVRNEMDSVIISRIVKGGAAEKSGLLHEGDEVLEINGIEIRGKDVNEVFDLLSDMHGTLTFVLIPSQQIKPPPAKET
Experiment: holdup assay
Set-up: key: below the threshold = too weak to quantify, mostly under pKd 3.1 to 4
Settings: plain residues with an end cap or a label only (N-terminal biotin on a linker: ttds)

Binder	pKd
B1	below the threshold
B2	below the threshold

Molecular target: T6, NHERF1_2, O14745
T6 sequence (O14745 149-244, limits assumed, looked up): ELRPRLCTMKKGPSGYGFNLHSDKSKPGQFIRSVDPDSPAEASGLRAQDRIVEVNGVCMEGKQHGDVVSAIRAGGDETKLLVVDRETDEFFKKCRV
Experiment: holdup assay
Set-up: key: below the threshold = too weak to quantify, mostly under pKd 3.1 to 4
Settings: plain residues with an end cap or a label only (N-terminal biotin on a linker: ttds)

Binder	pKd
B1	below the threshold
B2	below the threshold

Molecular target: T7, PDLIM3, Q53GG5
T7 sequence (Q53GG5 1-94, limits assumed, looked up): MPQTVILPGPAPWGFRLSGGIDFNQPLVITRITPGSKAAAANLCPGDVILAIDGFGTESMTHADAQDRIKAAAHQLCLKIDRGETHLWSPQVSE
Experiment: holdup assay
Set-up: key: below the threshold = too weak to quantify, mostly under pKd 3.1 to 4
Settings: plain residues with an end cap or a label only (N-terminal biotin on a linker: ttds)

Binder	pKd
B1	below the threshold
B2	below the threshold

Molecular target: PDLIM4, P50479
Experiment: holdup assay
Set-up: key: below the threshold = too weak to quantify, mostly under pKd 3.1 to 4
Settings: plain residues with an end cap or a label only (N-terminal biotin on a linker: ttds)

Sequence of PDLIM4, P50479 (P50479 1-83): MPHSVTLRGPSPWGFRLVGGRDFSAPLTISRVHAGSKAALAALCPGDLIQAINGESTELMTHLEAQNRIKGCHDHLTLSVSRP

Binder	pKd
B1	below the threshold
B2	below the threshold

Molecular target: T8, PDZD2_3, O15018
T8 sequence (O15018 581-682, limits assumed, looked up): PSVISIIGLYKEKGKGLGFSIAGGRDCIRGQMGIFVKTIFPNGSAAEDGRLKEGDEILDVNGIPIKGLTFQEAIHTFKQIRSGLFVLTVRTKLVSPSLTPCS
Experiment: holdup assay
Set-up: key: below the threshold = too weak to quantify, mostly under pKd 3.1 to 4
Settings: plain residues with an end cap or a label only (N-terminal biotin on a linker: ttds)

Binder	pKd
B1	below the threshold
B2	below the threshold

Molecular target: T9, PDZD2_4, O15018
T9 sequence (O15018 723-823, limits assumed, looked up): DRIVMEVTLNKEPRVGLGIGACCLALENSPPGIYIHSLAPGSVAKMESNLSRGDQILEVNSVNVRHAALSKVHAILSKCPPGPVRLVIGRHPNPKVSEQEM
Experiment: holdup assay
Set-up: key: below the threshold = too weak to quantify, mostly under pKd 3.1 to 4
Settings: plain residues with an end cap or a label only (N-terminal biotin on a linker: ttds)

Binder	pKd
B1	below the threshold
B2	4.78

Molecular target: T10, PREX2_2, Q70Z35
T10 sequence (Q70Z35 672-764, limits assumed, looked up): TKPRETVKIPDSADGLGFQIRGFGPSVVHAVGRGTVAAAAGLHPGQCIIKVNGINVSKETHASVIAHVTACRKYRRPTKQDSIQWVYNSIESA
Experiment: holdup assay
Set-up: key: below the threshold = too weak to quantify, mostly under pKd 3.1 to 4
Settings: plain residues with an end cap or a label only (N-terminal biotin on a linker: ttds)

Binder	pKd
B1	below the threshold
B2	below the threshold

Molecular target: PTPN13_2, Q12923
Experiment: holdup assay
Set-up: key: below the threshold = too weak to quantify, mostly under pKd 3.1 to 4
Settings: plain residues with an end cap or a label only (N-terminal biotin on a linker: ttds)

Sequence of PTPN13_2, Q12923 (Q12923 1363-1462): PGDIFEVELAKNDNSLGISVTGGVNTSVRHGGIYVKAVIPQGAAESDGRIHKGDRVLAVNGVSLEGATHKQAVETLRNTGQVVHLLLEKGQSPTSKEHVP

Binder	pKd
B1	below the threshold
B2	below the threshold

Molecular target: SDCBP_1, O00560
Experiment: holdup assay
Set-up: key: below the threshold = too weak to quantify, mostly under pKd 3.1 to 4
Settings: plain residues with an end cap or a label only (N-terminal biotin on a linker: ttds)

Sequence of SDCBP_1, O00560 (O00560 111-198): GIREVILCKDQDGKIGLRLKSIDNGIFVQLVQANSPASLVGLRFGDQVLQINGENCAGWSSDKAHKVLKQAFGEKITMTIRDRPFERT

Binder	pKd
B1	below the threshold
B2	below the threshold

Molecular target: T11, TIAM2, Q8IVF5
T11 sequence (Q8IVF5 885-986, limits assumed, looked up): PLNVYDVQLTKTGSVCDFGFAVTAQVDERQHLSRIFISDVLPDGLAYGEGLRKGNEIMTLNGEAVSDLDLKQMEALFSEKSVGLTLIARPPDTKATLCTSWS
Experiment: holdup assay
Set-up: key: below the threshold = too weak to quantify, mostly under pKd 3.1 to 4
Settings: plain residues with an end cap or a label only (N-terminal biotin on a linker: ttds)

Binder	pKd
B1	below the threshold
B2	below the threshold

Molecular target: T12, TJP3_1, O95049
T12 sequence (O95049 6-103, limits assumed, looked up): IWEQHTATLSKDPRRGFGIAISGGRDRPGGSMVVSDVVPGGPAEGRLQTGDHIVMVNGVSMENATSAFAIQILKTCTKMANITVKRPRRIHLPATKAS
Experiment: holdup assay
Set-up: key: below the threshold = too weak to quantify, mostly under pKd 3.1 to 4
Settings: plain residues with an end cap or a label only (N-terminal biotin on a linker: ttds)

Binder	pKd
B1	below the threshold
B2	below the threshold
